Test results published in patent CN111434684A.
Where “and” joins values, the source holds several entries; their conditions need not be identical. Identical values can stand only once.

Key:
[1] = target: H7N9病毒的HA蛋白(购自ACROBiosystems) (H7N9 influenza virus); test: ELISA, HA coated, negative control
[2] = target: H7N9病毒 A/Anhui/1/2013 的血凝素HA (on live virus) (influenza A virus A/Anhui/1/2013 (H7N9)); test: cell-based or functional assay
[3] = target: H7N9病毒的HA蛋白(购自ACROBiosystems) (H7N9 influenza virus); test: ELISA, HA coated, supernatant of 293F cells transfected with 5Q2 H and L genes

Molecule	450nm [1]	中和实验 (微量中和-ELISA, MDCK细胞) IC50 [2] [µg/mL]	450nm [3]
阴性对照 (ELISA, wells G, H)	0.0675 OD450 and 0.0554 OD450		
抗H7N9全人源单克隆抗体5Q2 (antibody, V domains shown) VH: QVQLVESGAEVKKPGASVKVSCKASGYIFTNYDINWVRQATGQGLEWMGWMSPDNGDTGFAQKFQGRVTMTRNTSITTAYMELSSLTSEDTAVYYCATGSADCNGGNCYSWFDPWGQGTLVTVSS VL: SSELTQDPAVSVALGQTVRITCQGDRVRNYYASWYQQKPGQAPVLVIYGKSNRPSGIPDRFSGSSSGNTASLTITGAQAEDEADYYCSNRDTNGYHVLFGGGTKLTVLV		5.52	1.23 OD450 and 0.936 OD450 and 0.723 OD450
